Results published in patent US20230358742A1 (MIT, published 2023).

B1: rcSso7d.LSP.7 (designed binder)
chain: MATVKFTYQGEEKQVDISKIKIAVYRYGQYIYFSYDEGGGASGIGKVSEKDAPKELLQMLEKQ
notes: also called clone 7; Clone 7
B2: rcSso7d.LSP.5 (designed binder)
chain: MATVKFTYQGEEKQVDISKIKWVRRAGQWIDFAYDEGGGAKGYGIVSEKDAPKELLQCWKS
notes: also called clone 5; Clone 5
B3: rcSso7d.LSP.3 (yeast-surface displayed) (designed binder)
chain: MATVKFTYQGEEKQVDISKIKIAKRYGQIIDFSYDEGGGARGWGIVSEKDAPKELLQMLEKQ
notes: also called clone 3; Clone 3

Tests used:
[1] = biological target: T1, His-LSP (LMOf2365_0639, Listeria monocytogenes surface protein, with N-terminal 6x-histidine tag) (Listeria monocytogenes); experiment: flow cytometry, clonal yeast-surface display, 20 nM His-LSP
T1 construct: also called Listeria surface protein
T1 chain: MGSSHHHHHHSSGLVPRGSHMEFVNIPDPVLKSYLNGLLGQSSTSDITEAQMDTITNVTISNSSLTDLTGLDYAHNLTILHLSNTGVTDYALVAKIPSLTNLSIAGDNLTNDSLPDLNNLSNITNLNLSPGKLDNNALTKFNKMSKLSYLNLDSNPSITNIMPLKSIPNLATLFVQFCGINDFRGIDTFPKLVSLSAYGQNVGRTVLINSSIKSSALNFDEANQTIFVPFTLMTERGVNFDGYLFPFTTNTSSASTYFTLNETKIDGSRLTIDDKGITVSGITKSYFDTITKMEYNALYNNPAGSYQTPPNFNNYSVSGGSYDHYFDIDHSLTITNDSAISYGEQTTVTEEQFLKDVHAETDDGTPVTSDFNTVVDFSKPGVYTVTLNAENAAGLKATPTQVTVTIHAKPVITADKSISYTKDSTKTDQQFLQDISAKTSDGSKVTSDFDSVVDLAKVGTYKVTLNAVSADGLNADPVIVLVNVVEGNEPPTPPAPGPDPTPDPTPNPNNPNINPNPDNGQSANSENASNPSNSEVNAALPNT

[2] = biological target: T1, His-LSP (LMOf2365_0639, Listeria …); experiment: FACS histograms, clonal yeast-surface display, 20 nM of LSP (FIG. 3B)

| Binder | binding result [1] | binding result [2] |
| --- | --- | --- |
| MATVKFTYQGEEKQVDISKIKDVGRHGQHICFWL (designed binder, also called clone 6; Clone 6) [rcSso7d.LSP.6] | binds | – |
| MATVKFTYQGEEKQVDISKIKDVGRYGQRICFWL (designed binder, also called clone 4; Clone 4) [rcSso7d.LSP.4] | – | binds |
| MATVKFTYQGEEKQVDISKIKDVGRHGQKICFLL (designed binder, also called clone 2; Clone 2) [rcSso7d.LSP.2] | – | binds |
| MATVKFTYQGEEKQVDISKIKDVGRSGQNICFYL (designed binder, also called clone 1; Clone 1) [rcSso7d.LSP.1] | binds | – |
| B1 | binds | – |
| B2 | binds | – |
| B3 | – | binds |
